For experiment [1], the target named is 人T细胞CD3 (human). Put plainly: cell-based or functional assay.
Experiment [2] addresses 人T细胞CD3 (human). Description: fluorescence staining and flow cytometry on CD3-positive HPBLL or Jurkat cells, compared with mOKT3 (Fig. 3).
Experiment [3] addresses 人T细胞CD3 (human). Put plainly: fluorescence staining, flow cytometry, antibody 1 μg/ml; cells not named. (Flow cytometry measures light scatter and fluorescence of single cells or particles in a stream.)
Experiment [4] addresses 人T细胞CD3 (human). Put plainly: fluorescence staining, flow cytometry, antibody 10 μg/ml; cells not named.
Experiment [5] has as its target 人T细胞CD3 (human). Description: fluorescence staining, flow cytometry, antibody 0.1 μg/ml; cells not named.
For experiment [6], the target named is 人T细胞CD3 (human). Put plainly: flow cytometry on human PBMC, unlabelled huGD3 competing with saturating FITC-mGD3; calculated by the formula [X]-[mGD3]=(1/Kx)-(1/Ka).

人T细胞CD3 (human), sequence (P07766 23-207, chain 1 of 4): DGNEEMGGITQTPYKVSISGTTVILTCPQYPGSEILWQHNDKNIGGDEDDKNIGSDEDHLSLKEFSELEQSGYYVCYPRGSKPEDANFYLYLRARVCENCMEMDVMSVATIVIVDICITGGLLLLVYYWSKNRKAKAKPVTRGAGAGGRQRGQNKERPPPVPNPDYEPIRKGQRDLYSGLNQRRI
人T细胞CD3 (human), sequence (P09693 23-182, chain 2 of 4, further chain): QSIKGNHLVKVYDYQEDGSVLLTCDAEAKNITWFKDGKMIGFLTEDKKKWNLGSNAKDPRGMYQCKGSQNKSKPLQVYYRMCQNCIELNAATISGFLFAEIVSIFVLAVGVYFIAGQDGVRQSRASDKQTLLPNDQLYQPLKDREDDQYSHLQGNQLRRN
人T细胞CD3 (human), sequence (P04234 22-171, chain 3 of 4, further chain): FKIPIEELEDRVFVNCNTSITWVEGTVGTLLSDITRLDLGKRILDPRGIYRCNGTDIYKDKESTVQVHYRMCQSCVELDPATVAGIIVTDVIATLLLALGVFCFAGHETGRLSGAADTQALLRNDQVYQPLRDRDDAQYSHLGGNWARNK
人T细胞CD3 (human), sequence (P20963 22-164, chain 4 of 4, further chain): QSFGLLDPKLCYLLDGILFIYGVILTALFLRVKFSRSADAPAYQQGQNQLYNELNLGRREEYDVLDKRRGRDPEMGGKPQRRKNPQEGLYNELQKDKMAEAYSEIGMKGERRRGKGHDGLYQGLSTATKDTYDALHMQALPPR

B1: 人源化抗体huGD3 (antibody, human IgG1, V domains shown)
VH: QVQLVQSGGGVVQPGRSLRLSCKASGYTFTSYTMHWVRQAPGKGLEWIGYINPSSGYTKYNQKFKDRFTISADNSKSTAFLQMDSLRPEDTAVYYCARWQDYDVYFDYWGQGTPVTVSS
VL: DIVLTQSPSSLSASVGDRVTITCRASSSVSYMHWYQQTPGKAPKPWIYATSNLASGVPSRFSGSGSGTDYTFTISSLQPEDIATYYCQQWSSNPPTFGQGTKLQITR
In the experiment with 人T细胞CD3 (human) [1], B1 displayed a CD3调变(%), antibody 10^1 ng/ml, human PBMC, 37°C 24 h of 13.6%; a CD3调变(%), antibody 10^2 ng/ml, human PBMC, 37°C 24 h of 56.9%; a CD3调变(%), antibody 10^3 ng/ml, human PBMC, 37°C 24 h of 70%; a CD3调变(%), antibody 10^4 ng/ml, human PBMC, 37°C 24 h of 85.4%. In the experiment with 人T细胞CD3 (human) [1], this molecule displayed a CD3调变(%), antibody 10^5 ng/ml, human PBMC, 37°C 24 h of 85.6%; a CD3调变(%), antibody 10^-1 ng/ml, human PBMC, 37°C 24 h of 9.52%; a CD3调变(%), antibody column printed '10' (probably 10^0) ng/ml, human PBMC, 37°C 24 h of 13.2%. The 亲和力 relative to mOKT3 (orders of magnitude) with 人T细胞CD3 (human) [2] was 2 数量级. The same molecule had an MFI with 人T细胞CD3 (human) [3] of 76 MFI. In addition, the MFI with 人T细胞CD3 (human) [4] is 97 MFI. For the same molecule, the MFI in the experiment with 人T细胞CD3 (human) [5] is 55 MFI. Moreover, the Ka with 人T细胞CD3 (human) [6] is 1.6e+09 M⁻¹.

These data come from patent CN1421459A.
